B1: anti-IgE E27 IgG1 variant K334(353)H (antibody)
heavy: not shown
light: DIQLTQSPSSLSASVGDRVTITCRASKPVDGEGDSYLNWYQQKPGKAPKLLIYAASYLESGVPSRFSGSGSGTDFTLTISSLQPEDFATYYCQQSHEDPYTFGQGTKVEIKRTVAAPSVFIFPPSDEQLKSGTASVVCLLNNFYPREAKVQWKVDNALQSGNSQESVTEQDSKDSTYSLSSTLTLSKADYEKHKVYACEVTHQGLSSPVTKSFNRGEC
notes: Fc variant of E27
B2: anti-IgE E27 IgG1 variant T256(269)A (antibody)
heavy: not shown
light: B1 light
notes: Fc variant of E27; also called IG2 11; Thr256Ala
B3: anti-IgE E27 IgG1 variant K334(353)V (antibody)
heavy: not shown
light: B1 light
notes: Fc variant of E27; also called IG2 220
B4: anti-IgE E27 IgG1 variant K334(353)M (antibody)
heavy: not shown
light: B1 light
notes: Fc variant of E27; also called IG2 190
B5: anti-IgE E27 IgG1 variant S298(317)N (antibody)
heavy: not shown
light: B1 light
notes: Fc variant of E27; also called IG2 72; Ser298Asn
B6: anti-IgE E27 IgG1 variant P331(350)A (antibody)
heavy: not shown
light: B1 light
notes: Fc variant of E27; also called IG2 65; Pro331Ala
B7: anti-IgE E27 IgG1 variant T256(269)N (antibody)
heavy: not shown
light: B1 light
notes: Fc variant of E27
B8: anti-IgE E27 IgG1 variant K334(353)L (antibody)
heavy: not shown
light: B1 light
notes: Fc variant of E27; also called IG2 221
B9: anti-IgE E27 IgG1 variant K334(353)S (antibody)
heavy: not shown
light: B1 light
notes: Fc variant of E27
B10: anti-IgE E27 IgG1 variant K334(353)Y (antibody)
heavy: not shown
light: B1 light
notes: Fc variant of E27
B11: anti-IgE E27 IgG1 variant K290(307)S (antibody)
heavy: not shown
light: B1 light
notes: Fc variant of E27; also called IG2 75
B12: anti-IgE E27 IgG1 variant K334(353)E (antibody)
heavy: not shown
light: B1 light
notes: Fc variant of E27
B13: anti-IgE E27 IgG1 variant K334(353)Q (antibody)
heavy: not shown
light: B1 light
notes: Fc variant of E27
B14: anti-IgE E27 IgG1 variant K334(353)N (antibody)
heavy: not shown
light: B1 light
notes: Fc variant of E27
B15: anti-IgE E27 IgG1 variant S298(317)T (antibody)
heavy: not shown
light: B1 light
notes: Fc variant of E27; also called IG2 71; Ser298Thr
B16: anti-IgE E27 IgG1 variant K334(353)G (antibody)
heavy: not shown
light: B1 light
notes: Fc variant of E27; also called IG2 179
B17: anti-IgE E27 IgG1 variant S298(317)A (antibody)
heavy: not shown
light: B1 light
notes: Fc variant of E27; also called IG2 36; G36
B18: anti-IgE E27 IgG1 variant S298(317)G (antibody)
heavy: not shown
light: B1 light
notes: Fc variant of E27; also called IG2 70
B19: anti-IgE E27 IgG1 variant K290(307)R (antibody)
heavy: not shown
light: B1 light
notes: Fc variant of E27; also called IG2 78
B20: anti-IgE E27 IgG1 variant K334(353)W (antibody)
heavy: not shown
light: B1 light
notes: Fc variant of E27
B21: anti-IgE E27 IgG1 variant S298(317)L (antibody)
heavy: not shown
light: B1 light
notes: Fc variant of E27
B22: E27 IgG1 variant E333(352)A/K334(353)A (antibody)
heavy: not shown
light: B1 light
B23: E27 IgG1 variant S267(280)A/D280(295)A (antibody)
heavy: not shown
light: B1 light
notes: also called IG2 248

This is an account of results in US7183387 (Genentech, dated 2007).

T3 sequence (P08637 other isoform, or with tags, fused parts or gaps, form in doubt): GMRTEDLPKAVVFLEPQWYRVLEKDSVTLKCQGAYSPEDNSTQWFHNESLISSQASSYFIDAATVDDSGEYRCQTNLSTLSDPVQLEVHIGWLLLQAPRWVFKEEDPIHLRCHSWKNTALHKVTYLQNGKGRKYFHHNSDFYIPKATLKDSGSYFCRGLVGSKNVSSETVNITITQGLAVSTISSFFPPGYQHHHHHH

The first assay addresses T1, human FcγRIIA-R131 α subunit extracellular domain-His6-GST fusion (human, UniProt P12318 34-217).
T1 construct: ECD-6His-GST fusion made in 293 cells; also called FcγRIIA-Arg131; not shown: glutathione S transferase (GST)
T1 sequence: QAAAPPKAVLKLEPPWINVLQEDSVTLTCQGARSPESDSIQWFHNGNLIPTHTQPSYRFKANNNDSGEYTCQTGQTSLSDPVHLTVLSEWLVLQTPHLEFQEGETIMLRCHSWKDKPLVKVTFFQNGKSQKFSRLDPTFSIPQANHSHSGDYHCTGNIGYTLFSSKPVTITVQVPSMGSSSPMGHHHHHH
The assay is described as follows: ELISA, IgG complex, receptor coated. (In general: An ELISA detects its analyte on a solid surface through an enzyme-linked reagent.)
As for B1, the “ratio of binding, variant/native IgG1 (mean)” value was 1.09 ratio.
Same read-out and setting: under B2 stands 1.41 ratio; under B3, 1.13 ratio; under B4, 1.06 ratio.
In the case of B5, the “ratio of binding, variant/native IgG1 (mean)” value amounted to 0.08 ratio.
Take B6: the “ratio of binding, variant/native IgG1 (mean)” value was determined as 1.29 ratio.
Turning to B7, the “ratio of binding, variant/native IgG1 (mean)” value worked out at 1.03 ratio.
With B8, the “ratio of binding, variant/native IgG1 (mean)” value turned out to be 1.05 ratio.
Turning to B9, the “ratio of binding, variant/native IgG1 (mean)” value came to 1.01 ratio.
As to B10, the “ratio of binding, variant/native IgG1 (mean)” value came out at 1.08 ratio.
Same read-out and setting: under B11 stands 1.27 ratio; under B12, 0.74 ratio; under B13, 1.08 ratio.
The same measure, in the same setting: under B14 stands 1.16 ratio.
B15: the “ratio of binding, variant/native IgG1 (mean)” value amounted to 0.41 ratio.
B16: the “ratio of binding, variant/native IgG1 (mean)” value was found to be 0.76 ratio.
Turning to B17, the “ratio of binding, variant/native IgG1 (mean)” value amounted to 0.4 ratio.
With B18, the “ratio of binding, variant/native IgG1 (mean)” value was found to be 0.87 ratio.
Turning to B19, the “ratio of binding, variant/native IgG1 (mean)” value was 1.05 ratio.
As to B20, the “ratio of binding, variant/native IgG1 (mean)” value turned out to be 0.94 ratio.
For B21, the “ratio of binding, variant/native IgG1 (mean)” value was found to be 1.14 ratio.

For another assay, the target named is T2, human FcγRIIIA-F158 α subunit extracellular domain-His6-GST fusion (human, UniProt P08637 17-208).
T2 construct: ECD-6His-GST fusion made in 293 cells; also called FcγRIIIA-Phe158; not shown: glutathione S transferase (GST)
T2 sequence (P08637 other isoform, or with tags, fused parts or gaps, form in doubt): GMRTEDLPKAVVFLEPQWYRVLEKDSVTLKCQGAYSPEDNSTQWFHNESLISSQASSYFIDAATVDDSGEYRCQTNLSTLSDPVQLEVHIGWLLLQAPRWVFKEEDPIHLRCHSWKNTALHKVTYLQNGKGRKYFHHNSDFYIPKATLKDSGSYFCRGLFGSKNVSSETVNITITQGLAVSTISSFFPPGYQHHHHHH
The assay is described as follows: ELISA, IgG complex, receptor coated.
Regarding B1, the “ratio of binding, variant/native IgG1 (mean)” value was found to be 1.26 ratio.
With B2, the “ratio of binding, variant/native IgG1 (mean)” value was found to be 1.32 ratio.
For the molecule B3, the “ratio of binding, variant/native IgG1 (mean)” value was found to be 1.34 ratio.
For the molecule B4, the “ratio of binding, variant/native IgG1 (mean)” value amounted to 1.35 ratio.
As to B5, the “ratio of binding, variant/native IgG1 (mean)” value was determined as 0.06 ratio.
On the same count and under the same terms, under B6 stands 1.03 ratio; under B7, 1.13 ratio.
For B8, the “ratio of binding, variant/native IgG1 (mean)” value was determined as 1.38 ratio.
For B9, the “ratio of binding, variant/native IgG1 (mean)” value came to 1.19 ratio.
Still for that read-out and setting: under B10 stands 1.31 ratio.
Take B11: the “ratio of binding, variant/native IgG1 (mean)” value was determined as 1.26 ratio.
For B12, the “ratio of binding, variant/native IgG1 (mean)” value is 1.3 ratio.
B13: the “ratio of binding, variant/native IgG1 (mean)” value was 1.31 ratio.
Same read-out and setting: under B14 stands 1.15 ratio; under B15, 0.89 ratio.
B16: the “ratio of binding, variant/native IgG1 (mean)” value is 0.88 ratio.
With B17, the “ratio of binding, variant/native IgG1 (mean)” value is 1.3 ratio.
Regarding B18, the “ratio of binding, variant/native IgG1 (mean)” value turned out to be 0.46 ratio.
As for B19, the “ratio of binding, variant/native IgG1 (mean)” value stood at 1.08 ratio.
The same measure, in the same setting: under B20 stands 1.07 ratio; under B21, 0.34 ratio.

The next assay has as its target T3, human FcγRIIIA-V158 α subunit extracellular domain-His6-GST fusion (human, UniProt P08637 17-208).
T3 construct: ECD-6His-GST fusion made in 293 cells; also called FcγRIIIA-Val158; not shown: glutathione S transferase (GST)
The assay is described as follows: ELISA, IgG complex, receptor coated.
For the molecule B1, the “ratio of binding, variant/native IgG1 (mean)” value was found to be 0.97 ratio.
In the case of B2, the “ratio of binding, variant/native IgG1 (mean)” value was 0.97 ratio.
Consider B3, for which the “ratio of binding, variant/native IgG1 (mean)” value is 1 ratio.
As to B4, the “ratio of binding, variant/native IgG1 (mean)” value came to 0.99 ratio.
As to B5, the “ratio of binding, variant/native IgG1 (mean)” value was 0.66 ratio.
Regarding B6, the “ratio of binding, variant/native IgG1 (mean)” value was found to be 0.96 ratio.
As to B7, the “ratio of binding, variant/native IgG1 (mean)” value stood at 0.95 ratio.
B8: the “ratio of binding, variant/native IgG1 (mean)” value was 0.96 ratio.
With B9, the “ratio of binding, variant/native IgG1 (mean)” value is 1.25 ratio.
With B10, the “ratio of binding, variant/native IgG1 (mean)” value was determined as 0.98 ratio.
With B11, the “ratio of binding, variant/native IgG1 (mean)” value is 1.05 ratio.
On to B12, for which the “ratio of binding, variant/native IgG1 (mean)” value amounted to 1.17 ratio.
For the molecule B13, the “ratio of binding, variant/native IgG1 (mean)” value was 1.27 ratio.
B14: the “ratio of binding, variant/native IgG1 (mean)” value worked out at 1.19 ratio.
For the molecule B15, the “ratio of binding, variant/native IgG1 (mean)” value stood at 0.96 ratio.
B16: the “ratio of binding, variant/native IgG1 (mean)” value amounted to 0.94 ratio.
Regarding B17, the “ratio of binding, variant/native IgG1 (mean)” value came to 1.02 ratio.
For B18, the “ratio of binding, variant/native IgG1 (mean)” value was determined as 0.88 ratio.
As for B19, the “ratio of binding, variant/native IgG1 (mean)” value was determined as 1.07 ratio.
Regarding B20, the “ratio of binding, variant/native IgG1 (mean)” value stood at 0.96 ratio.
Regarding B21, the “ratio of binding, variant/native IgG1 (mean)” value amounted to 0.83 ratio.

The target of a further assay is T3, human FcγRIIIA-V158 α subunit …. The assay is described as follows: ELISA, IgG monomer, receptor coated.
Take B1: the “ratio of binding, variant/native IgG1 (mean)” value turned out to be 2.06 ratio.
As for B2, the “ratio of binding, variant/native IgG1 (mean)” value is 1.2 ratio.
With B3, the “ratio of binding, variant/native IgG1 (mean)” value was determined as 2.89 ratio.
As for B4, the “ratio of binding, variant/native IgG1 (mean)” value turned out to be 2.08 ratio.
For B5, the “ratio of binding, variant/native IgG1 (mean)” value stood at 0.17 ratio.
With B6, the “ratio of binding, variant/native IgG1 (mean)” value turned out to be 0.78 ratio.
Consider B7, for which the “ratio of binding, variant/native IgG1 (mean)” value stood at 0.88 ratio.
For the molecule B8, the “ratio of binding, variant/native IgG1 (mean)” value was found to be 3.59 ratio.
Turning to B9, the “ratio of binding, variant/native IgG1 (mean)” value is 1.82 ratio.
Still for that read-out and setting: under B10 stands 1.72 ratio; under B11, 1.62 ratio.
As for B12, the “ratio of binding, variant/native IgG1 (mean)” value came out at 2.75 ratio.
On to B13, for which the “ratio of binding, variant/native IgG1 (mean)” value stood at 1.92 ratio.
Consider B14, for which the “ratio of binding, variant/native IgG1 (mean)” value was 1.7 ratio.
Turning to B15, the “ratio of binding, variant/native IgG1 (mean)” value amounted to 0.75 ratio.
On to B16, for which the “ratio of binding, variant/native IgG1 (mean)” value is 1.28 ratio.
As for B17, the “ratio of binding, variant/native IgG1 (mean)” value is 1.96 ratio.
Turning to B18, the “ratio of binding, variant/native IgG1 (mean)” value was 1.88 ratio.
As for B19, the “ratio of binding, variant/native IgG1 (mean)” value worked out at 1.24 ratio.
As to B20, the “ratio of binding, variant/native IgG1 (mean)” value amounted to 1.53 ratio.
Regarding B21, the “ratio of binding, variant/native IgG1 (mean)” value turned out to be 0.67 ratio.

The target in another assay is T4, human FcγRIIA-R131 α subunit extracellular domain-6His-GST fusion (human, UniProt P12318 34-217).
T4 construct: also called FcγRIIA-Arg131; not shown: glutathione S-transferase (GST)
T4 sequence: T1 sequence
The assay is described as follows: ELISA, IgG:IgE hexamers on receptor-GST.
As to B22, the “ratio to native IgG1” value was 0.72.
For the molecule B23, the “ratio to native IgG1” value amounted to 1.54.

The target of a further assay is T5, human FcγRIIB α subunit extracellular domain-6His-GST fusion (human, UniProt P31994 43-217).
T5 construct: not shown: glutathione S-transferase (GST)
T5 sequence: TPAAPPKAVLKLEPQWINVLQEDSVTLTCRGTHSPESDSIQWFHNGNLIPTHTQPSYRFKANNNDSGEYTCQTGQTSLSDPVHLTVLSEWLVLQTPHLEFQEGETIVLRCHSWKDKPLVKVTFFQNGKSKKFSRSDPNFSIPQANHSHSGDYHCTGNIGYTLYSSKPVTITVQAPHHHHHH
The assay is described as follows: ELISA, IgG:IgE hexamers on receptor-GST.
For B22, the “ratio to native IgG1” value came out at 0.63.
B23: the “ratio to native IgG1” value came out at 1.96.

The target in another assay is T6, human FcγRIIIA-F158 α subunit extracellular domain-6His-GST fusion (human, UniProt P08637 17-208).
T6 construct: also called FcγRIIIA-Phe158; not shown: glutathione S-transferase (GST)
The assay is described as follows: ELISA, IgG:IgE hexamers on receptor-GST.
Consider B22, for which the “ratio to native IgG1” value was 1.3.
On the same count and under the same terms, under B23 stands 1.13.
